# Data: patent US20260152571A1
# How the values were obtained:
# [1] = target: PIGQ/HLA complex on PIGQ-pulsed T2 cells (human); test: flow cytometry, T2 cells pulsed with 25 µM PIGQ peptide, antibody 10 µg/mL
# [2] = target: MED13L/HLA complex on MED13L-pulsed T2 cells (human); test: flow cytometry, T2 cells pulsed with 25 µM MED13L peptide, antibody 10 µg/mL
# [3] = target: HLA-A2 on T2 cells without added peptide (human); test: flow cytometry, T2 cells without peptide, antibody 10 µg/mL
Binder,Percentage of Positive Cells (%) [1],Percentage of Positive Cells (%) [2],Percentage of Positive Cells (%) [3]
"4F10-IgG1-SI (antibody, V domains shown) VH: QVQLQESGPGLVKPSETLSLTCTVSGGSISNYYWSWIRQPPGKGLEWIGYIYYSGSTNYNPSLKSRVNISVDTSKSQVSLKLNSVIAADTAVYYCARHEDYWYFDLWGRGTLVTVSS VL: DIQLTQSPSSLSASIRDRVTITCRASQDINNYLAWFQQKPGKAPKSLIYAVSSLESGVPSKFSGSGSGTDFTLTISSLQPEDFATYFCQQYNSYPFTFGPGTKVEIK",7.37%,13.1%,7.67%
"1G7-IgG1-SI (antibody, V domains shown) VH: QVQLVESGGGVVRPGGSLRLSCTASGFTFDDYGMTWVRQAPGKGLEWVSGINWNGGSTGYADSVKGRFTISRDNAKNSLFLQMNSLRAEDTALYYCARDQGIAVVGTHYYYYYGMDVWGQGTAVTVSS VL: EIVLTQSPATLSLSPGERATLSCRASQSFSSYLAWYQQKPGQAPRLLIFDTSNRATGIPARFSGSGSGTDFTLTISSLEPEDFAVYYCQQRSNWPLTFGGGTKVEIK",5.12%,5.12%,5.32%
"3A6-IgG1-SI (antibody, V domains shown) VH: QVQLQESGPGMVKPSETLSLTCTVSGGSISYNYWSWIRQPPGKGLEWIGYIYHSGTTKYNPSLKSRVTMSVDTSKNHFSLKLNSVTAADTAVYYCARHEDYWFFDLWGRGTLVTVSS VL: DIQMTQSPSSLSASVGDRVTITCRASQGISNYLVWFQQKPGKAPKSLIYAASILQSGVPSKFSGSGSGTDFTLTINSLQPEDFATYYCQQYNTYPFTFGPGTKVDIK",5.2%,5.72%,5.77%
"P01264-IgG1-SI (antibody, V domains shown) VH: EVQLVESGGGLVKPGGSLRLSCAASGFTFSNAWMNWVRQAPGKGLEWVGRIKSKTDGGTTDYAAPVKGRFTISRHDSKNTLYLQMNSLKTEDTAVYYCATDPRIAVTGTDYYYGMDVWGQGTTVTVSS VL: DIVMTQTPSFLSASVGDRVTITCRASQDISNYLNWYQQKPGKAPKLLIYDASNLETGVPSRFSGSGSGTDFTFTISSLQPEDIATYYCQQYDNLPITFGQGTRLEIK",4.93%,5.87%,4.65%
"7B9-IgG1-SI (antibody, V domains shown) VH: EVQLVESGGGVVQPGGSLRLSCAASGFTFDDYAMHWVRQAPGKGLEWVSLISGDDGSTYYADSMKGRITISRDNSKNSLYLQMNSLRTEDTAMYYCAKASYGSGSYLYNYGMDVWGQGTTVTVFS VL: DIQLTQSPSSLSASVGDRVTITCQASQDIINYLNWYQQKPGKAPKLLIYDTSNLETGVPSRFSGSGSGTDFAFTINSLQPEDIATYYCQQFVNLPLTFGGGTKVEIK",5.13%,7.68%,4.66%
